In patent US20030045470A1:

Biological target: Gal4 DBD-COUP-TF fusion protein (yeast) (UniProt P04386)
Assay: cell-based or functional assay

PGC-1 mediated activation of mutant PEPCK promoter-luciferase constructs (% of that achieved by HNF-4α): 20 to 30
Substance: PGC-1 (expressed from pCMV-PGC-1 in transfected cells) (from UniProt O70343 1-797)
